Data on 20 molecules can be found in patent US20210388087A1 (Chugai, published 2021).

To fix the notation:
B1: H183/L072 VL G91T (antibody, name in Kabat numbering, V domains shown)
VH: QVQLVESGGGLVQPGRSLRLSCAASGFTFSNAWMHWVRQAPGKGLEWVAQIKDKGNAYAAYYAPSVKGRFTISRDDSKNSIYLQMNSLKTEDTAVYYCHYVHYASASTVLPAFGVDAWGQGTTVTVSS
VL: DIVMTQSPLSLPVTPGEPASISCQASQELVHMNRNTYLHWYQQKPGQAPRLLIYKVSNRFPGVPDRFSGSGSGTDFTLKISRVEAEDVGVYYCAQTTSVPFTFGQGTKLEIK
notes: Dual-Ig
B2: H183/L072 VL H27dP (antibody, name in Kabat numbering, V domains shown)
VH: QVQLVESGGGLVQPGRSLRLSCAASGFTFSNAWMHWVRQAPGKGLEWVAQIKDKGNAYAAYYAPSVKGRFTISRDDSKNSIYLQMNSLKTEDTAVYYCHYVHYASASTVLPAFGVDAWGQGTTVTVSS
VL: DIVMTQSPLSLPVTPGEPASISCQASQELVPMNRNTYLHWYQQKPGQAPRLLIYKVSNRFPGVPDRFSGSGSGTDFTLKISRVEAEDVGVYYCAQGTSVPFTFGQGTKLEIK
notes: Dual-Ig
B3: H183/L072 VL H27dG (antibody, name in Kabat numbering, V domains shown)
VH: QVQLVESGGGLVQPGRSLRLSCAASGFTFSNAWMHWVRQAPGKGLEWVAQIKDKGNAYAAYYAPSVKGRFTISRDDSKNSIYLQMNSLKTEDTAVYYCHYVHYASASTVLPAFGVDAWGQGTTVTVSS
VL: DIVMTQSPLSLPVTPGEPASISCQASQELVGMNRNTYLHWYQQKPGQAPRLLIYKVSNRFPGVPDRFSGSGSGTDFTLKISRVEAEDVGVYYCAQGTSVPFTFGQGTKLEIK
notes: Dual-Ig
B4: H183/L072 VL H27dF (antibody, name in Kabat numbering, V domains shown)
VH: QVQLVESGGGLVQPGRSLRLSCAASGFTFSNAWMHWVRQAPGKGLEWVAQIKDKGNAYAAYYAPSVKGRFTISRDDSKNSIYLQMNSLKTEDTAVYYCHYVHYASASTVLPAFGVDAWGQGTTVTVSS
VL: DIVMTQSPLSLPVTPGEPASISCQASQELVFMNRNTYLHWYQQKPGQAPRLLIYKVSNRFPGVPDRFSGSGSGTDFTLKISRVEAEDVGVYYCAQGTSVPFTFGQGTKLEIK
notes: Dual-Ig
B5: H183/L072 VL H27dA (antibody, name in Kabat numbering, V domains shown)
VH: QVQLVESGGGLVQPGRSLRLSCAASGFTFSNAWMHWVRQAPGKGLEWVAQIKDKGNAYAAYYAPSVKGRFTISRDDSKNSIYLQMNSLKTEDTAVYYCHYVHYASASTVLPAFGVDAWGQGTTVTVSS
VL: DIVMTQSPLSLPVTPGEPASISCQASQELVAMNRNTYLHWYQQKPGQAPRLLIYKVSNRFPGVPDRFSGSGSGTDFTLKISRVEAEDVGVYYCAQGTSVPFTFGQGTKLEIK
notes: Dual-Ig
B6: H183/L072 VL H27dI (antibody, name in Kabat numbering, V domains shown)
VH: QVQLVESGGGLVQPGRSLRLSCAASGFTFSNAWMHWVRQAPGKGLEWVAQIKDKGNAYAAYYAPSVKGRFTISRDDSKNSIYLQMNSLKTEDTAVYYCHYVHYASASTVLPAFGVDAWGQGTTVTVSS
VL: DIVMTQSPLSLPVTPGEPASISCQASQELVIMNRNTYLHWYQQKPGQAPRLLIYKVSNRFPGVPDRFSGSGSGTDFTLKISRVEAEDVGVYYCAQGTSVPFTFGQGTKLEIK
notes: Dual-Ig
B7: H183/L072 VL H27dV (antibody, name in Kabat numbering, V domains shown)
VH: QVQLVESGGGLVQPGRSLRLSCAASGFTFSNAWMHWVRQAPGKGLEWVAQIKDKGNAYAAYYAPSVKGRFTISRDDSKNSIYLQMNSLKTEDTAVYYCHYVHYASASTVLPAFGVDAWGQGTTVTVSS
VL: DIVMTQSPLSLPVTPGEPASISCQASQELVVMNRNTYLHWYQQKPGQAPRLLIYKVSNRFPGVPDRFSGSGSGTDFTLKISRVEAEDVGVYYCAQGTSVPFTFGQGTKLEIK
notes: Dual-Ig
B8: H183/L072 VL H27dW (antibody, name in Kabat numbering, V domains shown)
VH: QVQLVESGGGLVQPGRSLRLSCAASGFTFSNAWMHWVRQAPGKGLEWVAQIKDKGNAYAAYYAPSVKGRFTISRDDSKNSIYLQMNSLKTEDTAVYYCHYVHYASASTVLPAFGVDAWGQGTTVTVSS
VL: DIVMTQSPLSLPVTPGEPASISCQASQELVWMNRNTYLHWYQQKPGQAPRLLIYKVSNRFPGVPDRFSGSGSGTDFTLKISRVEAEDVGVYYCAQGTSVPFTFGQGTKLEIK
notes: Dual-Ig
B9: H183/L072 VL H27dR (antibody, name in Kabat numbering, V domains shown)
VH: QVQLVESGGGLVQPGRSLRLSCAASGFTFSNAWMHWVRQAPGKGLEWVAQIKDKGNAYAAYYAPSVKGRFTISRDDSKNSIYLQMNSLKTEDTAVYYCHYVHYASASTVLPAFGVDAWGQGTTVTVSS
VL: DIVMTQSPLSLPVTPGEPASISCQASQELVRMNRNTYLHWYQQKPGQAPRLLIYKVSNRFPGVPDRFSGSGSGTDFTLKISRVEAEDVGVYYCAQGTSVPFTFGQGTKLEIK
notes: Dual-Ig
B10: H183/L072 VL H27dS (antibody, name in Kabat numbering, V domains shown)
VH: QVQLVESGGGLVQPGRSLRLSCAASGFTFSNAWMHWVRQAPGKGLEWVAQIKDKGNAYAAYYAPSVKGRFTISRDDSKNSIYLQMNSLKTEDTAVYYCHYVHYASASTVLPAFGVDAWGQGTTVTVSS
VL: DIVMTQSPLSLPVTPGEPASISCQASQELVSMNRNTYLHWYQQKPGQAPRLLIYKVSNRFPGVPDRFSGSGSGTDFTLKISRVEAEDVGVYYCAQGTSVPFTFGQGTKLEIK
notes: Dual-Ig
B11: H183/L072 VL H27dK (antibody, name in Kabat numbering, V domains shown)
VH: QVQLVESGGGLVQPGRSLRLSCAASGFTFSNAWMHWVRQAPGKGLEWVAQIKDKGNAYAAYYAPSVKGRFTISRDDSKNSIYLQMNSLKTEDTAVYYCHYVHYASASTVLPAFGVDAWGQGTTVTVSS
VL: DIVMTQSPLSLPVTPGEPASISCQASQELVKMNRNTYLHWYQQKPGQAPRLLIYKVSNRFPGVPDRFSGSGSGTDFTLKISRVEAEDVGVYYCAQGTSVPFTFGQGTKLEIK
notes: Dual-Ig
B12: H183/L072 VL H27dN (antibody, name in Kabat numbering, V domains shown)
VH: QVQLVESGGGLVQPGRSLRLSCAASGFTFSNAWMHWVRQAPGKGLEWVAQIKDKGNAYAAYYAPSVKGRFTISRDDSKNSIYLQMNSLKTEDTAVYYCHYVHYASASTVLPAFGVDAWGQGTTVTVSS
VL: DIVMTQSPLSLPVTPGEPASISCQASQELVNMNRNTYLHWYQQKPGQAPRLLIYKVSNRFPGVPDRFSGSGSGTDFTLKISRVEAEDVGVYYCAQGTSVPFTFGQGTKLEIK
notes: Dual-Ig
B13: H183/L072 VL H27dE (antibody, name in Kabat numbering, V domains shown)
VH: QVQLVESGGGLVQPGRSLRLSCAASGFTFSNAWMHWVRQAPGKGLEWVAQIKDKGNAYAAYYAPSVKGRFTISRDDSKNSIYLQMNSLKTEDTAVYYCHYVHYASASTVLPAFGVDAWGQGTTVTVSS
VL: DIVMTQSPLSLPVTPGEPASISCQASQELVEMNRNTYLHWYQQKPGQAPRLLIYKVSNRFPGVPDRFSGSGSGTDFTLKISRVEAEDVGVYYCAQGTSVPFTFGQGTKLEIK
notes: Dual-Ig
B14: H183/L072 VL H27dQ (antibody, name in Kabat numbering, V domains shown)
VH: QVQLVESGGGLVQPGRSLRLSCAASGFTFSNAWMHWVRQAPGKGLEWVAQIKDKGNAYAAYYAPSVKGRFTISRDDSKNSIYLQMNSLKTEDTAVYYCHYVHYASASTVLPAFGVDAWGQGTTVTVSS
VL: DIVMTQSPLSLPVTPGEPASISCQASQELVQMNRNTYLHWYQQKPGQAPRLLIYKVSNRFPGVPDRFSGSGSGTDFTLKISRVEAEDVGVYYCAQGTSVPFTFGQGTKLEIK
notes: Dual-Ig
B15: H183/L072 VL H27dL (antibody, name in Kabat numbering, V domains shown)
VH: QVQLVESGGGLVQPGRSLRLSCAASGFTFSNAWMHWVRQAPGKGLEWVAQIKDKGNAYAAYYAPSVKGRFTISRDDSKNSIYLQMNSLKTEDTAVYYCHYVHYASASTVLPAFGVDAWGQGTTVTVSS
VL: DIVMTQSPLSLPVTPGEPASISCQASQELVLMNRNTYLHWYQQKPGQAPRLLIYKVSNRFPGVPDRFSGSGSGTDFTLKISRVEAEDVGVYYCAQGTSVPFTFGQGTKLEIK
notes: Dual-Ig
B16: H183/L072 VL G91W (antibody, name in Kabat numbering, V domains shown)
VH: QVQLVESGGGLVQPGRSLRLSCAASGFTFSNAWMHWVRQAPGKGLEWVAQIKDKGNAYAAYYAPSVKGRFTISRDDSKNSIYLQMNSLKTEDTAVYYCHYVHYASASTVLPAFGVDAWGQGTTVTVSS
VL: DIVMTQSPLSLPVTPGEPASISCQASQELVHMNRNTYLHWYQQKPGQAPRLLIYKVSNRFPGVPDRFSGSGSGTDFTLKISRVEAEDVGVYYCAQWTSVPFTFGQGTKLEIK
notes: Dual-Ig
B17: H183/L072 VL G91V (antibody, name in Kabat numbering, V domains shown)
VH: QVQLVESGGGLVQPGRSLRLSCAASGFTFSNAWMHWVRQAPGKGLEWVAQIKDKGNAYAAYYAPSVKGRFTISRDDSKNSIYLQMNSLKTEDTAVYYCHYVHYASASTVLPAFGVDAWGQGTTVTVSS
VL: DIVMTQSPLSLPVTPGEPASISCQASQELVHMNRNTYLHWYQQKPGQAPRLLIYKVSNRFPGVPDRFSGSGSGTDFTLKISRVEAEDVGVYYCAQVTSVPFTFGQGTKLEIK
notes: Dual-Ig
B18: H183/L072 VL H27dT (antibody, name in Kabat numbering, V domains shown)
VH: QVQLVESGGGLVQPGRSLRLSCAASGFTFSNAWMHWVRQAPGKGLEWVAQIKDKGNAYAAYYAPSVKGRFTISRDDSKNSIYLQMNSLKTEDTAVYYCHYVHYASASTVLPAFGVDAWGQGTTVTVSS
VL: DIVMTQSPLSLPVTPGEPASISCQASQELVTMNRNTYLHWYQQKPGQAPRLLIYKVSNRFPGVPDRFSGSGSGTDFTLKISRVEAEDVGVYYCAQGTSVPFTFGQGTKLEIK
notes: Dual-Ig
B19: H183/L072 VL H27dD (antibody, name in Kabat numbering, V domains shown)
VH: QVQLVESGGGLVQPGRSLRLSCAASGFTFSNAWMHWVRQAPGKGLEWVAQIKDKGNAYAAYYAPSVKGRFTISRDDSKNSIYLQMNSLKTEDTAVYYCHYVHYASASTVLPAFGVDAWGQGTTVTVSS
VL: DIVMTQSPLSLPVTPGEPASISCQASQELVDMNRNTYLHWYQQKPGQAPRLLIYKVSNRFPGVPDRFSGSGSGTDFTLKISRVEAEDVGVYYCAQGTSVPFTFGQGTKLEIK
notes: Dual-Ig
B20: H183/L072 VL H27dM (antibody, name in Kabat numbering, V domains shown)
VH: QVQLVESGGGLVQPGRSLRLSCAASGFTFSNAWMHWVRQAPGKGLEWVAQIKDKGNAYAAYYAPSVKGRFTISRDDSKNSIYLQMNSLKTEDTAVYYCHYVHYASASTVLPAFGVDAWGQGTTVTVSS
VL: DIVMTQSPLSLPVTPGEPASISCQASQELVMMNRNTYLHWYQQKPGQAPRLLIYKVSNRFPGVPDRFSGSGSGTDFTLKISRVEAEDVGVYYCAQGTSVPFTFGQGTKLEIK
notes: Dual-Ig

For this assay, the target named is T1, Human CD137 ECD (human).
T1 construct: entry includes C-terminal His-tag and biotin acceptor peptide; also called human CD137 extracellular domain; 4-1BB
T1 sequence (chain, as listed by the source limits assumed): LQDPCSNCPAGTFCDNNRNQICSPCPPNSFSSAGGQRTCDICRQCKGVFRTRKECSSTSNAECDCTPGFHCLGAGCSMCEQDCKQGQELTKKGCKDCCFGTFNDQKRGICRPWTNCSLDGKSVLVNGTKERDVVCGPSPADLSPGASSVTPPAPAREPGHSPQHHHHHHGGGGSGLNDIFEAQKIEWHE
As to the kind of experiment: Biacore SPR, vs parent H183/L072. (In general: Surface plasmon resonance follows binding to a sensor surface in real time, without labels.)
For the molecule B1, the “fold change of affinity” value turned out to be 0 fold.

In the case of B2, the “fold change of affinity” value was 0.8 fold.

For the molecule B3, the “fold change of affinity” value came to 0.6 fold.

On to B4, for which the “fold change of affinity” value was found to be 0.4 fold.

Regarding B5, the “fold change of affinity” value stood at 0.7 fold.

Turning to B6, the “fold change of affinity” value is 0.8 fold.

Regarding B7, the “fold change of affinity” value turned out to be 0.7 fold.

Consider B8, for which the “fold change of affinity” value came to 0.5 fold.

For the molecule B9, the “fold change of affinity” value is 0.6 fold.

B10: the “fold change of affinity” value was 0.6 fold.

In the case of B11, the “fold change of affinity” value was 0.6 fold.

As for B12, the “fold change of affinity” value is 0.5 fold.

On to B13, for which the “fold change of affinity” value worked out at 0.6 fold.

Take B14: the “fold change of affinity” value is 0.6 fold.

For the molecule B15, the “fold change of affinity” value was 0.6 fold.

On to B16, for which the “fold change of affinity” value came to 0 fold.

On to B17, for which the “fold change of affinity” value is 0 fold.

Consider B18, for which the “fold change of affinity” value is 0.6 fold.

Take B19: the “fold change of affinity” value was determined as 0.3 fold.

For B20, the “fold change of affinity” value turned out to be 0.6 fold.
